Reference: patent US20220411529A1 (Genmab, published 2022)
Changes are numbered by the printed parent chain. Names may count otherwise.

B1: IgG4-CAMPATH-1H-E345R-K439E (antibody)
heavy: QVQLQESGPGLVRPSQTLSLTCTVSGFTFTDFYMNWVRQPPGRGLEWIGFIRDKAKGYTTEYNPSVKGRVTMLVDTSKNQFSLRLSSVTAADTAVYYCAREGHTAAPFDYWGQGSLVTVSSASTKGPSVFPLAPCSRSTSESTAALGCLVKDYFPEPVTVSWNSGALTSGVHTFPAVLQSSGLYSLSSVVTVPSSSLGTKTYTCNVDHKPSNTKVDKRVESKYGPPCPSCPAPEFLGGPSVFLFPPKPKDTLMISRTPEVTCVVVDVSQEDPEVQFNWYVDGVEVHNAKTKPREEQFNSTYRVVSVLTVLHQDWLNGKEYKCKVSNKGLPSSIEKTISKAKGQPRRPQVYTLPPSQEEMTKNQVSLTCLVKGFYPSDIAVEWESNGQPENNYKTTPPVLDSDGSFFLYSRLTVDKSRWQEGNVFSCSVMHEALHNHYTQESLSLSLGK
light: not shown
B2: IgG4-CAMPATH-1H-E345R-K439E-N297A (antibody)
heavy: B1 heavy with N298A
light: not shown
B3: IgG2-CAMPATH-1H-E345R-K439E (antibody)
heavy: QVQLQESGPGLVRPSQTLSLTCTVSGFTFTDFYMNWVRQPPGRGLEWIGFIRDKAKGYTTEYNPSVKGRVTMLVDTSKNQFSLRLSSVTAADTAVYYCAREGHTAAPFDYWGQGSLVTVSSASTKGPSVFPLAPCSRSTSESTAALGCLVKDYFPEPVTVSWNSGALTSGVHTFPAVLQSSGLYSLSSVVTVPSSNFGTQTYTCNVDHKPSNTKVDKTVERKCCVECPPCPAPPVAGPSVFLFPPKPKDTLMISRTPEVTCVVVDVSHEDPEVQFNWYVDGVEVHNAKTKPREEQFNSTFRVVSVLTVVHQDWLNGKEYKCKVSNKGLPAPIEKTISKTKGQPRRPQVYTLPPSREEMTKNQVSLTCLVKGFYPSDIAVEWESNGQPENNYKTTPPMLDSDGSFFLYSKLTVDKSRWQQGNVFSCSVMHEALHNHYTQESLSLSPGK
light: not shown
B4: IgG2-CAMPATH-1H-E345R-K439E-N297A (antibody)
heavy: B3 heavy with N297A
light: not shown
B5: IgG2-11B8-E345R-S440K (antibody)
heavy: EVQLVQSGGGLVHPGGSLRLSCTGSGFTFSYHAMHWVRQAPGKGLEWVSIIGTGGVTYYADSVKGRFTISRDNVKNSLYLQMNSLRAEDMAVYYCARDYYGAGSFYDGLYGMDVWGQGTTVTVSSASTKGPSVFPLAPCSRSTSESTAALGCLVKDYFPEPVTVSWNSGALTSGVHTFPAVLQSSGLYSLSSVVTVPSSNFGTQTYTCNVDHKPSNTKVDKTVERKCCVECPPCPAPPVAGPSVFLFPPKPKDTLMISRTPEVTCVVVDVSHEDPEVQFNWYVDGVEVHNAKTKPREEQFNSTFRVVSVLTVVHQDWLNGKEYKCKVSNKGLPAPIEKTISKTKGQPRRPQVYTLPPSREEMTKNQVSLTCLVKGFYPSDIAVEWESNGQPENNYKTTPPMLDSDGSFFLYSKLTVDKSRWQQGNVFSCSVMHEALHNHYTQKKLSLSPGK
light: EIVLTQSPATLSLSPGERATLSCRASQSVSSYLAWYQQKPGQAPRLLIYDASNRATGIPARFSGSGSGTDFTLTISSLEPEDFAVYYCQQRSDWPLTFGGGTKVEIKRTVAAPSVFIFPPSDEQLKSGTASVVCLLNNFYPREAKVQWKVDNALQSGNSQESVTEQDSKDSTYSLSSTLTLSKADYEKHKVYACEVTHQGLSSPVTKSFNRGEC
B6: IgG2-11B8-E345R-S440K-N297A (antibody)
heavy: B5 heavy with N301A
light: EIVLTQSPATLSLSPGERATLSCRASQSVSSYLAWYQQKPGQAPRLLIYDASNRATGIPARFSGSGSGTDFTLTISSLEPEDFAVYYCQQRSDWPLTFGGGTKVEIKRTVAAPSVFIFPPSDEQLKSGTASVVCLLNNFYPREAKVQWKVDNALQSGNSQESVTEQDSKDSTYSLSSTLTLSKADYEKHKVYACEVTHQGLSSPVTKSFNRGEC
B7: IgG4-11B8-E345R-S440K (antibody)
heavy: EVQLVQSGGGLVHPGGSLRLSCTGSGFTFSYHAMHWVRQAPGKGLEWVSIIGTGGVTYYADSVKGRFTISRDNVKNSLYLQMNSLRAEDMAVYYCARDYYGAGSFYDGLYGMDVWGQGTTVTVSSASTKGPSVFPLAPCSRSTSESTAALGCLVKDYFPEPVTVSWNSGALTSGVHTFPAVLQSSGLYSLSSVVTVPSSSLGTKTYTCNVDHKPSNTKVDKRVESKYGPPCPSCPAPEFLGGPSVFLFPPKPKDTLMISRTPEVTCVVVDVSQEDPEVQFNWYVDGVEVHNAKTKPREEQFNSTYRVVSVLTVLHQDWLNGKEYKCKVSNKGLPSSIEKTISKAKGQPRRPQVYTLPPSQEEMTKNQVSLTCLVKGFYPSDIAVEWESNGQPENNYKTTPPVLDSDGSFFLYSRLTVDKSRWQEGNVFSCSVMHEALHNHYTQKKLSLSLGK
light: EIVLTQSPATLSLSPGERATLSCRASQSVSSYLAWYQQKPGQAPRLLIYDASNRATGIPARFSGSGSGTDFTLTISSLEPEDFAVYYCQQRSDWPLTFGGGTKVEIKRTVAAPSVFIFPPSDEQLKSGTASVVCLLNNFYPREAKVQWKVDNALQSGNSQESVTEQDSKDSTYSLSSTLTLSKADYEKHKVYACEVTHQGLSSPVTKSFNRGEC
B8: IgG4-11B8-E345R-S440K-N297A (antibody)
heavy: B7 heavy with N302A
light: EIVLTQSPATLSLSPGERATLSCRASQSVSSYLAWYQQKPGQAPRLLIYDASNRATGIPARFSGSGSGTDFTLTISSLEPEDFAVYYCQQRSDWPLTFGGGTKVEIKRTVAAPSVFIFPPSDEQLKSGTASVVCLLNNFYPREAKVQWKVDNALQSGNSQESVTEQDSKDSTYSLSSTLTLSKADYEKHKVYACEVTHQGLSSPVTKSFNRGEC

Target: FcγRIIIa (V158 high affinity allotype) (UniProt P08637 17-254, limits assumed)
Sequence (P08637 17-254 F176V limits assumed): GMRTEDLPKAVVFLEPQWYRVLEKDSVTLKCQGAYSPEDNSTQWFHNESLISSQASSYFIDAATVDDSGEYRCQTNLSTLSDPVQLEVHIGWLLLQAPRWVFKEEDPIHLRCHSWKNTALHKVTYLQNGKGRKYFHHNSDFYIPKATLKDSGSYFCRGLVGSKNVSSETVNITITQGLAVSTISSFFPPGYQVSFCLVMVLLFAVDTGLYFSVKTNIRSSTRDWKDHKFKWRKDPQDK
Assay: cell-based or functional assay

Row | Binder | FcγRIIIa activation, reporter cell assay, relative AUC, single agent
1 | B1 | < 5 % of the level induced by the positive control mixture
2 | B2 | < 5 % of the level induced by the positive control mixture
3 | B3 | < 5 % of the level induced by the positive control mixture
4 | B4 | < 5 % of the level induced by the positive control mixture
5 | B5 | < 5 % of the level induced by the positive control mixture
6 | B6 | < 5 % of the level induced by the positive control mixture
7 | B7 | < 5 % of the level induced by the positive control mixture
8 | B8 | < 5 % of the level induced by the positive control mixture
